Test results: patent US5698421
Positions count from the first letter of the chain named.

How the values were obtained:
[1] = molecular target: T1, aI2-encoded protein P714T P714T (Saccharomyces cerevisiae) (UniProt P03876); test: cleavage_in_vitro; settings: relative to Example 1 RNP
T1 sequence: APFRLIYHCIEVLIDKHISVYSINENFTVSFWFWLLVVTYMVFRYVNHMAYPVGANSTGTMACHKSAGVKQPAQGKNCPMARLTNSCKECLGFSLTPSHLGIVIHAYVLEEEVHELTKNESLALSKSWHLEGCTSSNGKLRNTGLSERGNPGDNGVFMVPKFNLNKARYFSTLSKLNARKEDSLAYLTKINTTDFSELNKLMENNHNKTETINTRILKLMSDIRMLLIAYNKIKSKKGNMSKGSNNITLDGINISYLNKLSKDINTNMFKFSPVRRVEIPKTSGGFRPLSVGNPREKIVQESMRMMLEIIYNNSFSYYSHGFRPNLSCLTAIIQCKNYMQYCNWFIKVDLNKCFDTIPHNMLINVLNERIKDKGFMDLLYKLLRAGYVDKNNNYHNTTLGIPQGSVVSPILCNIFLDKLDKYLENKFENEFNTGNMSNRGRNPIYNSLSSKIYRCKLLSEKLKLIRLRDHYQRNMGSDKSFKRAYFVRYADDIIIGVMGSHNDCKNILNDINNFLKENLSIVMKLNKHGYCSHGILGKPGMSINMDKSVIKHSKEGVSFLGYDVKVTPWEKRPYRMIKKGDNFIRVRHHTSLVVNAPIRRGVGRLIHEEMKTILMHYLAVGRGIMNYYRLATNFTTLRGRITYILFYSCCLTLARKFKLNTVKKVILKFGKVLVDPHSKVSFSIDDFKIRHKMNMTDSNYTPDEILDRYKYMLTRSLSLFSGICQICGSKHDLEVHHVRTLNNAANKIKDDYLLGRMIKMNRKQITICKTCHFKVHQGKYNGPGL

[2] = molecular target: T2, aI2-encoded protein (wild-type, 62 kDa), aI2 RNP particle (Saccharomyces cerevisiae) (UniProt P03876); test: cleavage_in_vitro; settings: 20 mM Mg
T2 sequence: T1 sequence with T714P

Substance	relative cleavage activity ([1]; antisense strand) [%]	relative cleavage activity ([1]; sense strand) [%]	binding signal (relative rate) [2]
excised aI2 RNA, strain-specific mutated ; pE2E3-derived substrate, E2-E3 target	6	25	–
excised aI2 intron RNA ; pE2E3 142 nt RNA substrate	–	–	1
